Reference: patent US5952216

Tests used:
Assay in all cases: ELISA on Sf9 extract, absorbance at 405 nm normalized to H16.D9
[1] = biological target: HPV16:D202E virus-like particles (human papillomavirus type 16) (UniProt P03101)
[2] = biological target: HPV16:D202H L1 (human papillomavirus type 16) (UniProt P03101)
[3] = biological target: HPV16 L1 virus-like particles (human papillomavirus type 16) (UniProt P03101)
[4] = biological target: HPV11 L1 virus-like particles (human papillomavirus type 11) (UniProt P04012)

Substance	normalized ELISA value (normalized with H16.D9) [1]	normalized ELISA value (normalized with H16.D9) [2]	normalized ELISA value (normalized with H16.D9) [3]	normalized ELISA value (normalized with H16.D9) [4]
MAb H16.U4 (antibody)	0.59	0.21	0.79	0.06
MAb H16.V5 (antibody)	0.15	0.19	1.08	0.06
